Data: PMC8165985

Biological target: T1, YycF (Staphylococcus aureus (ATCC29213?)) (UniProt Q9RDT5)
T1 sequence: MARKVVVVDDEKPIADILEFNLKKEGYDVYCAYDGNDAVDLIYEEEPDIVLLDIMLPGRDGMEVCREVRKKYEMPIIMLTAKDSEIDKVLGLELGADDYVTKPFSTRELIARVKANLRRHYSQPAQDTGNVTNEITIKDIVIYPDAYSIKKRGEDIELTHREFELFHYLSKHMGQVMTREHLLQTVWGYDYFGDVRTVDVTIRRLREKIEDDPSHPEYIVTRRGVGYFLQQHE
Experiment: EMSA

Sequence	binding
GCGCAATTTGGTGAAGTTTGATAGATGATACATTCTATTAAACTTCCTTTTTTTATGTCTTTTTTTACCTAATTGTTAAGAGGTTTTGCACTAATGGCACTTAATATAAGGAAGATAGCCGCATAACGAGCAGTATATATCAAATACATTTCAAAAAAAGCTGATTTCTATCAAATAATGAATAGTAATCAGCTTTTTCACATTGCCTAAGGACTTTATGCCCTAGGTTTATATATCAC (double strand) [sarA promoter region]	binds
CTGAAAATTAATCACACTATGTTACAGGAAAATTAAGTTGCAATTACAAATATTTCCGTTTAATTATAACAACAATCTATTGCAAATTAAAATACTATCAATTACCATATGGCTTACAACCTAACTAACGAAAGGTAGGTAAAG (double strand) [icaA promoter region]	binds
